Test results from the nanobody polyreactivity screen of Harvey et al. (2022).

Test: yeast display, Sf9 membrane polyspecificity reagent, FACS + sequencing; frameworks hold sequencing errors
Method in brief: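 Sorting gates, low and high (top ~1%), were placed on anti-HA fluorescence to track expression and on streptavidin fluorescence to track reagent binding. A clone's polyreactivity label is taken from the gate it came out of. The reagent was 10% biotinylated, detergent-solubilized Sf9 membrane, applied for 1 hour at 4 °C to galactose-induced yeast display cells.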

Sequence	polyreactivity (PSR sort gate)
QVQLVESGGGLVQAGGSLRLSCAASGRIFSAYAMGWYRQAPGKERELVAVISRRGGRTYYADSVKGRFTISRDNAKNTVYLQMNSLKPEDTAVYYCAALGRRTRLYYWGQGTQVTVSS	high polyreactivity
QVQLVESGGGLVQAGGSLSLSCDASGSIFYYYAMGWYRQAPGKEREMVASITSSGGTTSYADSVKGRFTISRDNAKNTVYLQMNSLKPEDTAVYYCNAQVYRYRICYDFWGEGTQVTVSS	low polyreactivity
QVQLVESGGGLVQAGGSLRLSCAASGSTFVWNAMGWYRQAPGKERELVAAITNDGRTNYADSVKGRFTISRDNAKNTVYLQMNSLKPEDTAVYYCNADGFNSYWWNYYWGQGTQVTVSS	low polyreactivity
QVQLVESGGGLVQAGGSLRLSCAASGFIFDTYAMGWYRQAPGKERELVAAISWTGTDTYYADSVKGRFTISRDNAKNTVYLQMNSLKPEDTAVYYCATDYGWLYINSIWEYDYWGQGTQVTVSS	high polyreactivity
QVQLVESGGGLVQAGGSLRLSCAASGNIIRKYAMGWYRPAPGKERELVAAITASGGRTFYADSVKGRFTISRDNAKNTVDLQMNSLKPEDTAVYYCATRDSPRTKNGYYYWGQGTQVTVSS	high polyreactivity
QVQLVESGGGLVQAGGSLRLSCAASGFTFRRYVMGWYRQAPGKERELVAAISQSGGSTYYADSVKGRFTISRDNAKNTVYLQMYSLKPEDTAVYYCAAVTSRYVLSTFYYWGQGTQVTVSS	high polyreactivity
QVQLVESGGGLVQAGGSLRLSCDASGNTFGSYAMGWYGQAPGKEREVVASISGGGSTNYADSVKGRFTISRDNATNTVYLQMNSLKPEDTAVYDCAPRYYYRYYWRQGTQVTVSS	low polyreactivity
QVQLVESGGGLVQAGGSLRLSCAASGSNIYVYAMGWYRQAPGKERELVAAISSSSDSTYADSVKGRFTISRDNAKNTVYLQMNSLKPEDTAVYYCNKKNAVYFAYDYWGQGTQVTVSS	low polyreactivity
QVQLVESGGGLVQAGGSLRLSCAASGFTFVRNAMGWYRQAPGKERELVAAISYRGGSTYYADSVKGRFTISRDNAKNTVYLQMNSLKPEDTAVYYCAAEAGYSSRRYYWGQGTQVTVSS	high polyreactivity
QVQLVESGGGLVQAGGSLRLSCAASGLTIQRNDMGWYRQAPGKEREFVATITSNAGSTYYADSVKGRFTISRDNAKNPVYFQMNSLKPEDTAVYYWARERWWGGSDYWGQGTQVTVSS	high polyreactivity
QVQLVESGGGLVQAGGSLRLSCAASGFTFRWNAMGWYRQAPGKERELVAAITNDDSTYYADSVKGRFTISRDNAKNTVYLQMNSLKPEDTAVYYCNADLTQYDAGFDYWGQGTQVTVSS	low polyreactivity
QVQLVESGGGLVQAGGSLRLTCAASGSIFWYNAMGWYRQAPGKERELVAAIKWSGGSTFYADSVKGGFTISRDTAKNNVYLQMNSLKPEDTAVYYCNAPPLYRDEFWGQGTQVTVSS	high polyreactivity
QVQLVESGGGLVQAGGSLRLSCAASGRTSVLYAMGWYRQAPWKEREFVAAITWNSGSTYYADSVKGRFTISRDNAKNTVYLQMNSLKPEDTAVYYCNADYYFSSYRSTYDYWGQGTQVTVSS	low polyreactivity
QVQLVESGGGLVQAGGSLPLSCAASGSIFGINAMGWYRQAPGKERELVAAISSRGASTYYADSVKGRFTISRDNAKNTVYLQMNSLKPEDTAVYYCAADAFYWGQGTQVTVSS	low polyreactivity
QVQLVESGGGLVQAGGSLRLSCAASGSTFFGYDMGWYRQAPGKERELVASINSGGSTYFADSEKGRFTISRDNPKNTVYLQMNSLKPEDTAVYYCAARPSYLYPYDRTGEYDYWGQGTQVTVSS	high polyreactivity
QVEIVESGGGLVQAGGSLRLSCAASGRTFSYYAMGWYRQAPGKERELVAAISTSGGSTYYAVSVKGRFTISRDYAKITVYLQMNSLKPEDTAVYVCAASPYLRFLYGGFGYWGQGTQVTVSS	high polyreactivity
QVQLVESGGGLVQAGGSLRLSCAASGSIFPSYAMGWYRQAPGKERELVAAISSSGGSTYYADSVKGRFTISRDNAKNTVYLQMNSLKPEDTAVYYCATRYRRWSTVVQDDYWGQGTQVTVSS	low polyreactivity
QLQLEESGGGLVQAGGSLRLSCAASGSTFSRNAMGWYRQAPGNERELVAAITIRGGSTSYADSVKGRFTISRENAKNTVYLQMNSLKPEDTAVYYCYRQSRNAGGYYWGQGTQVTVSS	low polyreactivity
QVQLVESGGGLVQAGGSLRLSCAASGRIFPSYMGWYRQAPGKERELVARISNTGSTYYADSVKGRFTISRDNAKNTVYIQMNSLKPEDTAVYYCAAVYIFRVFSHPPYDYWGQGTQVTVSS	low polyreactivity
QVQLVESGGGLVQAGGSLRLSCAASARIFKTYAMGWYIQAPGKERELVATITWSGGSTYADSVKGRFTITRDNAKNTVYLQMNSLKPEDTAVYYCAAGRTYYSPGYRSYSGYDYWGQGTQVTLSS	high polyreactivity
QVQLVESGGGLVQAGGSLRLSCAASGRMFYYYVMGWYRQAPGKESELVAVIDWSGGSTYYADSLKGRFTISRDTAKNTVYLQMNSLKPEDTAVYYCARVPYGNPNGNTPYGDNRYNSWGQGTQVTVSS	low polyreactivity
QVQLVESGGGLVQAGGSLRLSCAASGSIFVNNAMGWYRQAPGKERELVAAIRRGSSTNYADSVKGRFTISRDNAKNTVYLQMNSLKPEDTAVYDCAADHDDDEAQNYDYLGQGTQVTVSS	low polyreactivity

Sequence	polyreactivity (PSR sort gate)
QVQLVESGGGLVQAGGNLRLSCAASGLIFWYNAMGWYRQAPGKERELVAAINWSGDSTYYADSVKGRFTISRDNAKNTVYLQMNSLKPEDTAVYYCAATEQSYGYDYWGQGTQVTVSS	low polyreactivity
QVQLVESGEGLVQAGGSLRLSCAASGITFDAYTMGWYRQAPGKERELVAAITWSSTSTYYADSVKGRFTISRDNAKNTVYLQMNSLKPEDTAVFYCAAYRVGDYYWGQGTKVTVSS	low polyreactivity
QVQLVESGGGLVQAGCSLRLSCAASGFTFAGNAMGWYRQAPGKERELVAAISRRGGSTYYADSVKGRFTISRDNAKNTVYLKMNSLKPEDNAVYYCAAVYRYDYDYWGQGNQVTVSS	high polyreactivity
QVQLVESGGGLVQAGGTLRVSCAASGSTFTTNAMGWSRQAPGTERELFATISGGGSTYYADSVQGRFTISRDNAKNTVYLQMNSLKPDDTAVYYCATDVQVPGIGRSVYAYEYLGQGTQVTVSS	low polyreactivity
QVQLVESGGGLVQAGGSRRLSCAASGSTFSDYAMGWYRQAPGKERELVAAISSSGGRTYYADSVKGRFTISRDNAKNTVYLQMNSLNPEDTAVYYCNARGYARGVSTGYDFWGQGTQVTVSS	high polyreactivity
QVQLVESGGGLVQAGGSLRISCAASGRTFYQYDMGWYRQAPGKERELVAAIDWSGGSTYYADSVKGRFTISRDNAKNTVYLQMNSLKPEDTAVYYCNADAYPHPVVGYDYWGQGTQVTVSS	low polyreactivity
QVQLVESGGGLVQAGGSLRLSCAASGSIFPGYAMGWSRQAPGKERELVAAISTSGGSTYADSVKGRFTISRDNAKNTVYLQMNSLKPEDTAVYYCAATYTYTSPVYYSLDGPWPYDYWGQGTQVTVSS	low polyreactivity
QVQLVESGGGLVQAGGSLRLSCAASGLTFYRYTMGWYRQAPGKERELVAAIRSSGGRTYYADSVKGRFTISRDNAKNTVYLQKNSLKPEDTAVYYCNAVRYNSVGYVYWGQGTQVTVSS	high polyreactivity
QVQLVESGGGLVQAGGSLRLSCAASGRTFVRYAMGWYRQATGNERELVAAISTSGGNTYYADSVKGRFSISRDNAKNTVYLQMNSLKPEDTAVYYCANDRGPNAKFDDWGQGTQVTVSS	low polyreactivity
QVQLVESGGGLVQAGGSLRLSCAASGRTFFLYTMGWYRQAPGKEREFVAAINYSGGRTYYADSVKGRVTISRDHAKNTVYLQMNSLKPEDTAVDYCNAVYSFLYPDHMGYWGQGTQVTVSS	high polyreactivity
QVQLVESGGGLVQAGGSLRLICAASGIILAYAMGWYRQAPGKERELVAAISGRAGSTYYADSVKGRFTISRDNAKNTVYLHMNSLTPEDTAVYYCAKRISYLPVEMDYWGQGTQVTVSS	low polyreactivity
QVQQRESGGGLVQAGGSLSLSCAASGTIFYSRYMGWYRQAPGKEREFVASISSGGNTNYADSVKGRCTISRDNAKNTVYLQMNSLKPEVTAVYYCAVNTGLITTFPFWGQATQVTVSS	high polyreactivity
QVQLVESGGGLVQAGGSLRLSCAASGITFYDNVMGWYRQAPGKERELVAAITDSGGSTYYADSVKGRFTISRDNAKNTVYLQMNSLKPEDTAVYYCNADVNAHWWWYIEEYWGQGTQVTVSS	low polyreactivity
QVHLVETGGGLVQEGGSLRLSCAATGSNFGQNAMGWYRQAPGKERELVAAITRRGVATYYADSVKGRFTISRDNAKNTVYLQLISLKPEDTAVYYCAKRYHPNSPYDYWGQGTQVTVSS	low polyreactivity
QVQLVESGGCLVQAGGSLRLSCAASGSIFNRYTMGWYRQAPGKEREFVAAISSSGTSTYYADSVKGRFTISRDNAKNTVYLQMNILKPEDTAVYYCAADWTGGFYTWYVIPYDYWGQGTQVTVSS	low polyreactivity
QVQLVESGGGLVQAGGSLRLSCAASGSIFVHNDMGWYRQAPGKERELVATIDSAGGTYYADSVKGRFTISRDNAKNTVYLQMNSLKPEDTAVYYCAAYGPYVLSIYDYWGQGTQVTVSS	low polyreactivity
QVQLVESGGGLVQAGRSLRISRAASGSIFYKNVMGWYRQAPGKERELVAAITSGGSTYYADSVKGRFTISRDNAKNTVYFQMNSVYPEYSAVYYWAAGFGRNPVSRYYWGQGTQVTVSS	high polyreactivity
QVQLVESGGGLVQAGGSLRLSCAASGRTFKYYALGWYRQAPGKERELVAAISTRGGRTYADSVKGRFTISRDNAKNTVYLQMNSLKPEDTAVYYCARDSNVGHHGFDYWGQGTQVTVSS	low polyreactivity
QVQLVESGGGLVQAGGSLRLSCAASGSTFVINAMGWYRQAPGKERELVADIDYRGGSTNYADSVKGRFTISRDNAKNTVYLQMNSLKPEDTAVYYCNKRYVIRRRGYDYWGQGTQVTVSS	low polyreactivity
QVQLVESGGGLVQAGGSLRLSCAASGSIFTYYAMGWYRQAPGKERELVAAISWRSGSTYYADSVKGRFTISRDNAKNTVYLQMNSLKPEDTAVYYCAAEDFDYAVWYDYWGQGTQVTVSS	high polyreactivity
QVQLVESGGGLVQAGGSLRLSCAASGRIFKSYAMGWYRQAPGKERELVAGITSGGGTYYADSLKGRFTISRDNAKTTVYLQMNSLKPEDTPVYYCATRTYRESTYDYWGQGTQVTVSS	high polyreactivity
